Drawing on patent US20200031912A1 (published 2020), this text covers Kd for 7 molecules.

Positions count from the first letter of the chain named.

This assay addresses human recombinant FcRn protein (human, UniProt P55899 24-297). As to the kind of experiment: Biacore.

Sequence of human recombinant FcRn protein (P55899 24-297): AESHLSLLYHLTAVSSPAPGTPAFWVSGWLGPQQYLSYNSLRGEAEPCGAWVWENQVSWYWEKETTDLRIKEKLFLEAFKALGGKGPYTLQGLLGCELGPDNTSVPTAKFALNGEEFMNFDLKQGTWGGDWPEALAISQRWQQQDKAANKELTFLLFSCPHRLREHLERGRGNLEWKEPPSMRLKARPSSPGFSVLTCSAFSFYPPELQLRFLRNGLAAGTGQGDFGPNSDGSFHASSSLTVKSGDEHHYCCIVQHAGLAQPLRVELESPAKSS

B1: template (Macaque) CH2 domain molecule of SEQ ID NO: 2 (other)
chain: GPSVFLFPPKPKDTLMISRTPEVTCVVVDVSQEDPDVKFNWYVNGAEVHHAQTKPRETQYNSTYRVVSVLTVTHQDWLNGKEYTCKVSNKALPAPIQKTISKDK
Turning to B1, the Kd came out at 13 nM.

B2: ABD02 (SEQ ID NO: 4) (designed binder)
chain: GPSVFLFPPKPKDTLMISRTPEVTCVFVDYRADYLEVKFNWYVDGAEVHNAKTKPRQYDPLYGYRVVSVLTVLHQDWLNGKEYTCKVSNKALPAPIEKTISKDK
Take B2: the Kd was 21 nM.

B3: ABD04 (SEQ ID NO: 6) (designed binder)
chain: B2 chain with L15M, N50H, L73S
In the case of B3, the Kd was 8.9 nM.

B4: ABD03 (SEQ ID NO: 5) (designed binder)
chain: B2 chain with N50H, L73S, E97Q
Consider B4, for which the Kd is 11.4 nM.

B5: B11, a template CH2 domain molecule (SEQ ID NO: 12) (designed binder)
chain: B2 chain with F27V, A46V, T84K, D103A
Regarding B5, the Kd amounted to 12 nM.

B6: ABD01 (SEQ ID NO: 3) (designed binder)
chain: B2 chain with A46V
With B6, the dissociation constant Kd was determined as 4.18 nM.

B7: ABD05 (SEQ ID NO: 7) (designed binder)
chain: B2 chain with N50H, L73S
As to B7, the Kd was determined as 9.1 nM.
